Reference: patent publication US20250361296A1 (BIOCYTOGEN PHARMACEUTICALS BEIJING, published 2025)

Tests used:
[1] = biological target: T1, human SIGLEC15 on CHO-S-hSIGLEC15 cells (human, UniProt Q6ZMC9 20-328); assay: flow cytometry (MFI) on CHO-S-hSIGLEC15 cells; antibody sample: 40° C. 7 d
T1 sequence: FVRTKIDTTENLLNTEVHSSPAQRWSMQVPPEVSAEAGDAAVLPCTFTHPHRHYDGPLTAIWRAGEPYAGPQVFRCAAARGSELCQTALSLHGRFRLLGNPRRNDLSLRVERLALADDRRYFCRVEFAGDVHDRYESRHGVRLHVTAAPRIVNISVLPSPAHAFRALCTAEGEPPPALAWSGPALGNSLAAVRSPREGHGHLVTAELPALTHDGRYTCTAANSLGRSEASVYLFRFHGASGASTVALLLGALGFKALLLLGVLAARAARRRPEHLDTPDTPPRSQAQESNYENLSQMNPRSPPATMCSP
Experimental: (§1) In the activity detection experiment, 30 μL of CHO-S-hSIGLEC15 cells were added to the culture plate, and the antibody to be tested was added in a gradient dilution ([…]), and incubated at 4° C. for 30 min. The plate was washed with PBS, and diluted secondary antibody Anti-hIgG-Fc-Alex Flour 647 (RL1-H) (1:2000) was added, incubated at 4° C. for 30 min. The plate was washed once with PBS and the cells were resuspended for flow cytometry detection. MFI value was derived by FlowJo 7.6.1 analysis to calculate EC50.

[2] = biological target: T1, human SIGLEC15 on CHO-S-hSIGLEC15 cells; assay: flow cytometry (MFI) on CHO-S-hSIGLEC15 cells; antibody sample: pH 3.5 6 h
Experimental: as §1

[3] = biological target: T1, human SIGLEC15 on CHO-S-hSIGLEC15 cells; assay: flow cytometry (MFI) on CHO-S-hSIGLEC15 cells; antibody sample: 0 d
Experimental: as §1

[4] = biological target: T1, human SIGLEC15 on CHO-S-hSIGLEC15 cells; assay: flow cytometry (MFI) on CHO-S-hSIGLEC15 cells; antibody sample: pH 3.5 0 h
Experimental: as §1

[5] = biological target: T1, human SIGLEC15 on CHO-S-hSIGLEC15 cells; assay: flow cytometry (MFI) on CHO-S-hSIGLEC15 cells; antibody sample: freeze 1
Experimental: as §1

[6] = biological target: T1, human SIGLEC15 on CHO-S-hSIGLEC15 cells; assay: flow cytometry (MFI) on CHO-S-hSIGLEC15 cells; antibody sample: 25° C. 7 d
Experimental: as §1

[7] = biological target: T1, human SIGLEC15 on CHO-S-hSIGLEC15 cells; assay: flow cytometry (MFI) on CHO-S-hSIGLEC15 cells; antibody sample: 4° C. 7 d
Experimental: as §1

[8] = biological target: T1, human SIGLEC15 on CHO-S-hSIGLEC15 cells; assay: flow cytometry (MFI) on CHO-S-hSIGLEC15 cells; antibody sample: freeze 10
Experimental: as §1

- EC50 [1]: 1.55 µg/mL
- EC50 [2]: 2.05 µg/mL
- EC50 [3]: 1.79 µg/mL
- EC50 [4]: 1.66 µg/mL
- EC50 [5]: 1.46 µg/mL
- EC50 [6]: 1.64 µg/mL
- EC50 [7]: 1.63 µg/mL
- EC50 [8]: 1.67 µg/mL
B1: one-armed anti-SIGLEC15 antibody 10C9-S, human IgG1-N297A (antibody)
heavy: not shown
chain: DKTHTCPPCPAPELLGGPSVFLFPPKPKDTLMISRTPEVTCVVVDVSHEDPEVKFNWYVDGVEVHNAKTKPREEQYASTYRVVSVLTVLHQDWLNGKEYKCKVSNKALPAPIEKTISKAKGQPREPQVCTLPPSREEMTKNQVSLSCAVKGFYPSDIAVEWESNGQPENNYKTTPPVLDSDGSFFLVSKLTVDKSRWQQGNVFSCSVMHEALHNHYTQKSLSLSPGK
light: DIQLTQSPLSSPVTLGQPASISCRSSQSLVNSDGETFLSWLQQRPGQPPRLLIYKISNRFSGVPDRFSGSGAGTDFTLKISRVEAEDVGVYYCMQATQFPHTFGQGTKLEIKRTVAAPSVFIFPPSDEQLKSGTASVVCLLNNFYPREAKVQWKVDNALQSGNSQESVTEQDSKDSTYSLSSTLTLSKADYEKHKVYACEVTHQGLSSPVTKSFNRGEC
notes: One-armed format; It has a full-length heavy chain with the knob (T366W), a single Fc fragment with the hole mutations (T366S, L368A, Y407V), and a full-length light chain
